From patent US10723771B2, “Modified microorganisms expressing SagA as anti-infective agents, probiotics and food components” (priority 2015, dated 2020)
Entries after “also recorded” stand apart in the source; their conditions may differ.

Assays:
[1] = tested on: S. Typhimurium; test: Liquid-treatment pulsed infection assay: C. elegans treated in liquid wells, then infected with S. Typhimurium, survival scored; format: in vivo; details: for Inhibition of S. Typhimurium pathogenesis (C. elegans survival): liquid wells 2 hours before infection, protein 10-20 μg/mL, defined fragments 50 μM, digests 100 μL; for Inhibition of S. Typhimurium pathogenesis (survival) in tol-1(nr2033) animals: tol-1(nr2033) C. elegans, liquid treatment
Text: C. elegans infection assays: For each condition, 3 plates of 30 worms each (total 90 worms) were scored, unless otherwise noted. Mean percent survival and standard deviation of the triplicate plates for a representative experiment are shown for extended data figures. Mean percent survival and statistical comparisons by log rank test after Bonferroni correction for multiple comparisons using OASIS software are shown in the figures. E. faecium refers to strain Com15 unless otherwise noted in the figure legends. Worms were handled using a Leica M60 microscope and imaged using a Leica IC80 HD camera.
Liquid-treatment pulsed infection assay: Synchronized young adult worms were transferred to 96-well plate wells containing 32% BHI media, culture supernatant, or live cultures. For protein treatments, 10-20 μg/mL of protein in PBS was included in each well. For treatment with peptidoglycan digests, 100 μL of each digest was added to each well. For treatment with defined peptidoglycan fragments, 50 μM of each fragment in a mixture of PBS and water was included in each well. MDP, GlcNAc, and MurNAc were purchased from Sigma-Aldrich. MurNAc-L-Ala was synthesized as described below in Scheme 51. After 2 hours, worms were washed and transferred to lawns of IR715 grown on BHI plates for 1 day. Then, worms were washed and transferred to lawns of OP50 grown on NGM plates (Day 0). Worms were maintained on OP50-NGM plates and survival was scored.
Treatment of culture supernatants: Proteinase K treatment: Culture supernatant or media was digested with 0.1 mg/mL of proteinase K in the presence of 1 mM CaCl2 for 2 hours at 37° C. Then, 1 mM EGTA was added, and digestions were used in the liquid-treatment pulsed infection assay.
Trichloroacetic acid precipitation: Culture supernatant or media was precipitated with TCA (final concentration of 10%) overnight at 4° C. Precipitated proteins were pelleted and rinsed 2 times in acetone, then air-dried and resuspended in BHI media before use in the liquid-treatment pulsed infection assay. 10-kDa MWCO column filtration: E. faecium culture supernatant or media was filtered through 10-kDa MWCO columns (Vivaspin GE Healthcare), and the flow-thru was used in the liquid-treatment pulsed infection assay.
5-kDa MWCO column filtration of E. coli culture supernatants: E. coli BL21-RIL(DE3) expressing SagA-His or AS-His were induced in BHI media instead of LB as described above. Portions of the culture supernatants were filtered through 5-kDa MWCO columns (Vivaspin GE Healthcare), and the unfiltered supernatants, column concentrate, and column flow-thru were used in the liquid-treatment pulsed infection assay.
Peptidoglycan Digests: 100 μg of E. coli peptidoglycan (Invivogen) was digested with 20 μg lysozyme (Sigma) and 20 μg of SagA-His or AS-His overnight in a mixture of PBS and water at 37° C. Digests were then filtered through 5-kDa MWCO columns (Vivaspin GE Healthcare), and the flow-thru was used in the liquid-treatment pulsed infection assay.

[2] = tested on: S. Typhimurium; test: Colonization and S. Typhimurium infection of mice (weight loss, fecal burden, survival); format: in vivo; details: MurNAc alone
Experimental: Specific pathogen-free (SPF) mice were gavaged with either a single dose of 20 mg streptomycin or a daily dose of AMNV antibiotic cocktail (4 mg ampicillin, 2 mg metronidazole, 4 mg neomycin, and 2 mg vancomycin) for 7-14 days as indicated in the figure legends. Bacterial cultures were washed and resuspended in sterile PBS at 10^9/mL for E. faecium, E. faecalis, and L. plantarum or at 10^7/mL (SPF) or 10^3/mL (GF) for S. Typhimurium. Mice were colonized by gavage with 100 uL of the indicated bacterial suspension 4 hours before infection (for streptomycin-treated mice) or 2-7 days before infection (for AMNV and GF gnotobiotic mono-colonized mice). Colonization was followed by infection with S. Typhimurium by oral gavage at the doses indicated above and in the figure legends. Weight loss was monitored from just before infection, and mice were euthanized when they reached 80% baseline weight or when they appeared hunched or moribund, whichever occurred first. Death was not used as an end-point. Colony-forming units (CFU) in the feces were determined by plating 5 serial dilutions of feces suspended in sterile PBS on selective agars: Salmonella Shigella Agar (BD 211597) for S. Typhimurium, Enterococcosel Agar (BD 212205) for E. faecium and E. facealis, and MRS Agar with 8 ug/mL chloramphenicol for L. plantarum-vector and -SagA. Resulting quantities were normalized to feces weight.

[3] = tested on: S. Typhimurium; test: Worm CFU measurements, S. Typhimurium; format: in vivo, C. elegans; details: protein-treated infected animals
Experimental: Worm CFU measurements: Protocol for CFU measurements was adapted from previous protocol. Briefly, 5-20 worms were rinsed in drops of S buffer, and allowed to crawl free of bacteria on a sterile plate. These worms were then mechanically lysed in PBS using microtubes and pestles (Kimble-Chase). Serial dilutions of worm homogenate were plated on Salmonella-Shigella agar (BD BBL) or Enterococcosel (BD BBL) agar plates, and plates were incubated at 37° C. overnight.

[4] = tested on: E. coli BL21-RIL(DE3); test: Growth of E. coli in the presence of SagA; format: cell-based; details: LB media + 10 μg/ml protein
Experimental: (§1) Growth of E. coli and S. Typhimurium in the presence of SagA: LB media was inoculated with overnight cultures 1:100. Protein was added at 10 μg/mL and volumes were normalized across all conditions with PBS. OD600 was measured at given time points. Growth of OG1RF-sagA: BHI media was inoculated with overnight cultures 1:100. Chloramphenicol was added at 10 μg/mL as indicated. OD600 was measured at given time points.

[5] = tested on: E. coli BL21-RIL(DE3); test: Growth (OD600) of E. coli expressing SagA, AS or SagA-SS; format: cell-based; details: IPTG-induced expression in E. coli BL21-RIL(DE3)
Experimental: Bacterial growth curves: Growth of E. coli expressing SagA, AS, or SagA-SS: Cultures were grown as described for protein purification, except that OD600 was monitored at given time points using a Spectromax M2e spectrophotometer.

[6] = tested on: S. Typhimurium; test: Growth of S. Typhimurium in the presence of SagA; format: cell-based; details: LB media + 10 μg/ml protein
Experimental: as §1

[7] = ANTS labeling assay of peptidoglycan digests; format: biochemical; details: purified E. coli peptidoglycan digested with lysozyme and the protein
Experimental: E. coli supernatants were prepared by inoculating cultures 1:50 with an overnight culture of E. coli BL21-RIL(DE3) expressing SagA-His6 or AS-His6. Cultures were grown for 2 hours, then induced with 1 mM IPTG, and grown for an additional 2 hours. Enterococcus supernatants were prepared by growing cultures overnight. Cultures were pelleted, and supernatant was filtered through 10 kDa MWCO columns (Millipore Microcon). For peptidoglycan digests, 100 μg of E. coli peptidoglycan was digested with 20 μg lysozyme and 20 μg of SagA-His or AS-His overnight in a mixture of PBS and water at 37° C. Digests were filtered through 10 kDa MWCO columns. Culture supernatants, peptidoglycan digests, and defined peptidoglycan fragments were dried by speed-vac before ANTS labeling. ANTS labeling was using established techniques. 10 μl of ANTS reaction mix was added to each tube of dried material (1:1 mixture of 0.2 M ANTS (in 3:17 acetic acid:water): 1 M NaCNBH3 (in DMSO)). Reactions were incubated overnight at 37° C. 0.5-3.5 μL of the ANTS labeled mixtures were mixed 1:1 with 40% glycerol and samples were separated by native PAGE on a hand-cast 37-40% Tris-glycine acrylamide gel (19:1 polyacrylamide:bisacrylamide, with a 20% acrylamide stack) at 150 V for ˜3 hours or 80 V for ˜6 hours. Empty lanes adjacent to sample lanes were loaded with samples of ANTS labeled Ala-D-γ-Glu-Lys-D-Ala-D-Ala (Sigma). […]

[8] = tested on: SPI-1 type III protein secretion in S. Typhimurium; test: Salmonella protein secretion assay; format: cell-based; details: LB + 10 μg/ml protein
Experimental: Salmonella protein secretion assay: For each condition, 2 mL of LB was inoculated with overnight cultures 1:30. Protein was added to media at 10 μg/mL and volumes were normalized across all conditions with PBS. Cultures were grown for 4 hours, shaking at 37° C., the pelleted at 7000 g for 5 minutes. 1 mL of culture supernatant was precipitated with trichloro acetic acid (TCA) at a final concentration of 10% overnight at 4° C. Precipitated proteins were pelleted at 20,800 g for 30 minutes, rinsed 2 times in acetone, then air-dried. Proteins were then separated by SDS-PAGE and visualized by Coomassie staining.

**Q.** For `CC(=O)N[C@H]1C(O)O[C@H](CO)[C@@H](O)[C@@H]1O` (some centres unmarked) [GlcNAc, N-acetylglucosamine], which “Inhibition of S. Typhimurium pathogenesis (C. elegans survival)” value (“Inhibition … (C. elegans survival)” below) [1] is on record?
**A.** not protective; also recorded: did not inhibit S. Typhimurium pathogenesis

**Q.** What does the source list for “N-acetylmuramic acid-L-alanine [MurNAc-L-Ala]”?
**A.** Inhibition of S. Typhimurium pathogenesis (C. elegans survival) [1]: can inhibit S. Typhimurium pathogenesis; also recorded: sufficient to inhibit S. Typhimurium pathogenesis; Inhibition of S. Typhimurium pathogenesis (survival) in tol-1(nr2033) animals [1]: not protective; Inhibition of S. Typhimurium pathogenesis (survival) in tol-1(nr2033) animals ([1]; listed as MurNAc-Ala): do not inhibit S. Typhimurium pathogenesis

**Q.** Which results are given for `CC(=O)N[C@H]1C(O)O[C@H](CO)[C@@H](O)[C@@H]1O[C@H](C)C(=O)O` (some centres unmarked) [MurNAc]?
**A.** Inhibition of S. Typhimurium pathogenesis (C. elegans survival) [1]: can inhibit S. Typhimurium pathogenesis; also recorded: sufficient to inhibit S. Typhimurium pathogenesis; Inhibition of S. Typhimurium pathogenesis (survival) in tol-1(nr2033) animals [1]: do not inhibit S. Typhimurium pathogenesis; also recorded: not protective; Protection of antibiotic-treatment mice from S. Typhimurium pathogenesis [2]: insufficient to protect antibiotic-treatment mice from S. Typhimurium pathogenesis

**Q.** With `CC(=O)N[C@H]1C(O)O[C@H](CO)[C@@H](O)[C@@H]1O[C@H](C)C(=O)N[C@@H](C)C(=O)N[C@H](CCC(=O)O)C(=O)O` (stereo partly drawn) [MDP, MurNAc-L-Ala-D-Glu] as the molecule, how does the “Inhibition … (C. elegans survival)” value [1] read?
**A.** not protective; also recorded: did not inhibit S. Typhimurium pathogenesis

B1: SagA: E. faecium secreted antigen A, NlpC/p60 peptidoglycan hydrolase, SEQ ID NO:1, purified His6-tagged (protein, listed as Enterococcus faecium)
chain: MKKSLISAVMVCSMTLTAVASPIAAAADDFDSQIQQQDQKIADLKNQQADAQSQIDALESQVSEINTQAQDLLAKQDTLRQESAQLVKDIADLQERIEKREDTIQKQAREAQVSNTSSNYIDAVLNADSLADAIGRVQAMTTMVKANNDLMEQQKQDKKAVEDKKAENDAKLKELAENQAALESQKGDLLSKQADLNVLKTSLAAEQATAEDKKADLNRQKAEAEAEQARIREQQRLAEQARQQAAQEKAEKEAREQAEAEAQATQASSTAQSSASEESSAAQSSTTEESSSAAQSSTTEESTTAPESSTTEESTTAPESSTTEESTTVPESSTTEESTTVPESSTTEESTTVPESSTTEESTTVPETSTEESTTPAPTTPSTDQSVDPGNSTGSNATNNTTNTTPTPTPSGSVNGAAIVAEAYKYIGTPYVWGGKDPSGFDCSGFTRYVYLQVTGRDIGGWTVPQESAGTKISVSQAKAGDLLFWGSPGGTYHVAIALGGGQYIHAPQPGESVKVGSVQWFAPDFAVSM
modifications: His6 tag
**Q.** For B1, which “S. Typhimurium colonization of C. elegans (imaging and CFU)” value [3] is on record?
**A.** does not affect S. Typhimurium colonization of C. elegans

**Q.** And the “Effect on growth rate of E. coli in culture” value [4]?
**A.** no effect on the growth rate of E. coli

**Q.** What about the “E. coli cell lysis (culture optical density) on induced expression” value [5] of the same molecule?
**A.** decrease in culture optical density

**Q.** And the “Effect on growth rate of S. Typhimurium in culture” value [6]?
**A.** no effect on the growth rate of S. Typhimurium

**Q.** And the “Inhibition … (C. elegans survival)” value [1]?
**A.** inhibits S. Typhimurium pathogenesis

**Q.** What about the “Inhibition … (C. elegans survival)” value ([1]; listed as SagA-His6) of the same molecule?
**A.** sufficient to inhibit S. Typhimurium pathogenesis

**Q.** What about the “Peptidoglycan cleavage product (ANTS visualization)” value [7] of the same molecule?
**A.** yielded a unique peptidoglycan cleavage product with similar mobility to MurNAc-L-Ala

**Q.** And the “Effect on secretion of S. Typhimurium type III protein effectors (SPI-1) in culture” value [8]?
**A.** does not affect SPI-1 secretion in culture

**Q.** What about the “Effect on secretion of S. Typhimurium type III protein effectors (SPI-1) in culture” value ([8]; listed as recombinant SagA) of the same molecule?
**A.** no effect
